According to publication PMC4382702, “Artificial human Met agonists based on macrocycle scaffolds” (Nature Communications, 2015):
Each block holds one molecule with its values, some of them ahead of it. Positions of bridges follow the written chain, without caps; N, C: chain ends.

Columns and labels:
c-Ret = test: Transactivation of c-Ret; assay type: cell-based, human
Protocol: EHMES-1 cells were cultured in a 12-well plate until they were 80%–90% confluent. The cells were left untreated or stimulated with hHGF or aML5-PEG3 in the presence or absence of the indicated concentrations of the specific Met kinase inhibitor, SU11274 (Calbiochem). Cells were then lysed with 100 μl of Laemmli sample buffer. Lysates were sonicated and centrifuged for 15 min at 15,000 g. Supernatants were analysed by SDS–PAGE gel electrophoresis and western blotting, using anti-phosphorylated Met (Y1234/1235) mAb or anti-phosphorylated c-Ret (Y905) antibody.

human Met ectodomain [1] = target: T1, human Met ectodomain (Homo sapiens, UniProt P08581); test: SPR analysis of macrocycle binding to immobilized human Met ectodomain-Fc
T1 construct: human Met ectodomain-Fc chimera was immobilized; purchased Sino Biological Inc
Protocol: (§1) The binding constants of the macrocycles to the Met ectodomain were determined by SPR analysis using a Biacore T200 machine (GE Healthcare). The running buffer was HBS EP+ buffer (10 mM Hepes pH 7.4, 150 mM NaCl, 3 mM EDTA and 0.05% (v/v) SurfactantP20) containing 0.1% DMSO. To assess the interaction between human Met and the macrocycles, human Met ectodomain-Fc chimera was immobilized to a surface density of 1,200–1,600 response units (RUs) on a CM5 sensor chip using a human antibody capture kit (GE Healthcare). Macrocycle binding was tested by injecting varying concentrations of the macrocycle at a flow rate of 30 μl min^−1. Binding was quantified by a single-cycle kinetics method. To assess whether macrocycles and hHGF interacted with human, mouse and canine Met, each biotinylated macrocycle or hHGF was immobilized to a surface density of 200–500 RUs (for biotinylated macrocycles) or ~2,200 (for biotinylated hHGF) RUs on a CAP sensor chip using a Biotin CAPture Kit (GE Healthcare), following the standard protocol. Met binding was tested by injecting varying concentrations of the macrocycle at 30 μl min^−1 and quantifying by a single-cycle kinetics method. All data were fitted to the standard 1:1 binding model.

Met (Y1234/1235) = target: T2, Met (Y1234/1235) (Homo sapiens, UniProt P08581); test: Cell-based phospho-Met ELISA; conditions: EHMES-1 cells
T2 construct: endogenous in cells; host or cells: EHMES-1
Protocol: EHMES-1 cells (2 × 10^4 cells per well) were seeded in a 96-well black μClear-plate (Greiner Bio-One). After 24 h, the cells were stimulated with hHGF or dimeric macrocycle in RPMI1640 medium supplemented with 10% FBS for 10 min. The cells were washed with ice-cold PBS, fixed with 4% paraformaldehyde (PFA) in PBS for 30 min and washed three times with PBS. The cells were blocked with 5% goat serum, 0.02% Triton X-100 in PBS for 30 min and then incubated for 12 h in phospho-Met (Tyr1234/1235) (D26) XP rabbit mAb diluted 1:1,000 in 1% goat serum in PBS at 4 °C. The cells were washed three times with PBS and incubated for 1 h in HRP-conjugated anti-rabbit goat antibody diluted 1:1,000 in 1% goat serum in PBS. Following incubation, the cells were washed four times with PBS. Chemiluminescence was developed with ImmunoStar LD reagent (Wako) and measured by ARVO MX (Perkin Elmer). Relative Met phosphorylation was calculated as (Chemiluminescence unit of sample−chemiluminescence unit of mock control)/(chemiluminescence unit of 1.3 nM hHGF−chemiluminescence unit of mock control).

human Met ectodomain [2] = target: T1, human Met ectodomain; test: SPR with biotinylated macrocycle or hHGF immobilized, human Met ectodomain injected; assay type: binding; conditions: ligand immobilized on streptavidin sensor chip
Protocol: as §1
(§2) Supplementary Figure 4. SPR sensorgrams of human (blue), murine (red) and […]
(§3) Measured curves are shown in blue, red and green, and fitted curves are shown in black. […]

murine Met ectodomain = target: T3, murine Met ectodomain (Mus musculus, UniProt P16056); test: SPR with biotinylated macrocycle or hHGF immobilized, murine Met ectodomain injected; assay type: binding; conditions: ligand immobilized on streptavidin sensor chip
T3 construct: murine Met ectodomain-Fc chimera proteins; purchased Sino Biological Inc
Protocol: as §1, §2, §3

canine Met ectodomain = target: T4, canine Met ectodomain (Canis lupus familiaris, UniProt Q75ZY9); test: SPR with biotinylated macrocycle or hHGF immobilized, canine Met ectodomain injected; assay type: binding; conditions: ligand immobilized on streptavidin sensor chip
T4 construct: canine Met ectodomain were purchased from Sino Biological Inc; purchased Sino Biological Inc
Protocol: as §1, §2, §3

[3] = test system: Met, Gab1, Akt and Erk1/2; test: Western blotting of Met and downstream signalling proteins; assay type: cell-based, human; conditions: starved EHMES-1 cells, hHGF 2 nM or dimers 100 nM, 10 min
Protocol: (§4) EHMES-1 cells were cultured in a six-well plate until they were 80%–90% confluent. After starvation for 6 h, the cells were stimulated with 2 nM hHGF or with 100 nM aML5-PEG3, aMD4-PEG11, aMD5-PEG11 or aMsD4-C6 for 10 min. Cells were then lysed with 200 μl of lysis buffer 17 (R&D Systems) containing 1 × Complete protease inhibitor cocktail (Roche). Lysates were analysed by SDS–PAGE analysis with 10% polyacrylamide gel and standard western blotting. The respective primary antibodies and HRP-conjugated secondary antibodies were diluted 1:2,000 in Can Get Signal Solution 1 (TOYOBO) and 1:5,000 in Can Get Signal Solution 2 (TOYOBO), respectively. Chemiluminescent signals were developed with Luminata Forte HRP substrate (Merck Millipore) and observed using an ImageQuant LAS 350 machine (GE Healthcare). Relative phosphorylation efficiency was evaluated by the band intensity and statistical differences between stimulants were calculated using Student’s t-test. The phospho-RTK array was performed using Proteome Profiler Human Phospho-RTK Array Kit (R&D Systems). For stimulation of cells with FBS, cells were cultured in the presence of 10% FBS, with or without excess concentrations of hHGF (30 nM) or aML5-PEG3 (3,000 nM) for 10 min. Cell lysates of stimulated EHMES-1 cells were analysed according to the manufacturer’s instructions.

[4] = test system: 49 representative human RTKs; test: Phospho-RTK array; assay type: cell-based
Protocol: as §4

HCC827 cells = test: Cell growth assay in gefitinib-treated HCC827 cells; assay type: cell-based, human; conditions: HCC827 cells with 1 µM gefitinib
Protocol: Cells were plated at 2,500 cells per well in 96-well plates for calcein-AM staining or 7,500 cells per well in 48-well plates for cell counting. For HUVEC and HDMEC, plates were pre-coated with gelatin (Difco Laboratories, 0.1% for 1 h at 37 °C). After 3 h, the medium was removed and replaced with medium as follows: HUVEC and HDMEC were cultured in endothelial cell basal medium supplemented with 2% (HUVEC) or 1% (HDMEC) FCS, and 90 μg ml^−1 heparin, with or without hHGF or dimeric macrocycle. RPTEC were cultured in REBM supplemented with 0.5% FBS and 2.4 mM L-alanyl-L-glutamine, with or without hHGF or dimeric macrocycle. NHEK was cultured in KBM2 supplemented with 0.4% bovine pituitary extract, 0.33 μg ml^−1 hydrocortisone, 0.39 μg ml^−1 epinephrine, 10 μg ml^−1 transferrin and 1.8 mM CaCl2, with or without hHGF or dimeric macrocycle. […] The culture media (with or without hHGF or dimeric macrocycle) were replaced every second day. After 6 days, cells were stained with 5 μg ml^−1 calcein-AM (Dojindo) at 37 °C for 15 min. Fluorescence of living cells was detected by ARVO MX. Alternatively, cells were harvested with trypsin–EDTA solution, suspended in culture medium and the cell number was determined using a Countess Automated Cell Counter (Life Technologies). Statistical differences between stimulants were calculated using Student’s t-test.

HPAEC = test: DNA synthesis (BrdU incorporation); assay type: cell-based, human; conditions: 30 nM dimeric macrocycle or 0.25 nM hHGF, 20 h
Protocol: Normal HPAECs were maintained in MCDB 131 medium supplemented with 5% FBS and 1.2 nM of basic fibroblast growth factor. Cells were serum starved for 24 h and then stimulated with 30 nM dimeric macrocycle or 0.25 nM hHGF in the presence of 5% FBS and 10 μM BrdU for 20 h. The cells were fixed in 4% PFA in PBS for 30 min, permeabilized with 0.2% Triton X-100 in PBS for 5 min, treated with 2 M HCl for 20 min and neutralized with 0.1 M sodium tetraborate for 5 min. The treated, neutralized cells were incubated with anti-BrdU primary antibody (BD Biosciences) for 2 h and subsequently stained with a fluorescently labelled secondary antibody for 30 min. The nuclei were stained with DAPI. BrdU incorporation was analysed by Biozero fluorescence microscopy (Keyence).

RPTEC = test: Branching morphogenesis assay in RPTEC; assay type: cell-based, human; conditions: RPTEC in collagen gels, 8 days
Protocol: RPTEC (2 × 10^4 cells) were suspended in 400 μl Cellmatrix type IA collagen solution (Nitta Gelatin) in a 48-well plate and allowed to gel for 60 min at 37 °C, according to the manufacturer’s instructions. After gelation, 500 μl REBM supplemented with 0.5% FBS and 2.4 mM L-alanyl-L-glutamine, with or without hHGF (0.42 nM, 1.3 nM) or macrocycles (30 nM, 100 nM), were added to each well. Cells were cultured for 8 days, replacing the culture medium (with or without hHGF or dimeric macrocycle) every second day. HuCCT1 (1 × 10^4 cells) were suspended in 400 μl Cellmatrix type IA collagen solution in a 48-well plate and were allowed to gel for 60 min at 37 °C. After gelation, 500 μl RPMI1640 medium supplemented with 10% FBS, with or without 0.38 nM hHGF or 20 nM dimeric macrocycle, was added to each well. Cells were cultured for 8 days, replacing the culture medium (with or without hHGF or dimeric macrocycle) every second day. TAC-2 cells (4 × 10^3 cells) were suspended in 400 μl type I collagen solution (BD Biosciences) in a 48-well plate. After gelation, 500 μl DMEM supplemented with 10% FBS, with or without hHGF or dimeric macrocycle, was added to each well. Cells were cultured for 7 days, replacing the culture medium (with or without hHGF or dimeric macrocycle) every second day.

[5] = target: T5, Recombinant human Met ectodomain-Fc chimera protein (human, UniProt P08581 25-932); test: SPR; Biacore T200; human Met ectodomain-Fc captured (1,200-1,600 RU) on a CM5 chip with a human antibody capture kit; monomeric macrocycle or linear peptide injected at 30 µl/min, single-cycle kinetics; HBS EP+ (10 mM Hepes pH 7.4, 150 mM NaCl, 3 mM EDTA, 0.05% Surfactant P20) with 0.1% DMSO; 1:1 binding model; conditions: both partners purified
T5 construct: Hepatocyte growth factor receptor (Met), human, ectodomain; Captured through its Fc with a human antibody capture kit in a1 and a2; injected as analyte in a3; also called human Met extracellular domain; source: bought: Sino Biological Inc

[6] = 10% FBS, hHGF 30 nM or aML5-PEG3 3,000 nM

T5 sequence (P08581 25-932, stated change not applied): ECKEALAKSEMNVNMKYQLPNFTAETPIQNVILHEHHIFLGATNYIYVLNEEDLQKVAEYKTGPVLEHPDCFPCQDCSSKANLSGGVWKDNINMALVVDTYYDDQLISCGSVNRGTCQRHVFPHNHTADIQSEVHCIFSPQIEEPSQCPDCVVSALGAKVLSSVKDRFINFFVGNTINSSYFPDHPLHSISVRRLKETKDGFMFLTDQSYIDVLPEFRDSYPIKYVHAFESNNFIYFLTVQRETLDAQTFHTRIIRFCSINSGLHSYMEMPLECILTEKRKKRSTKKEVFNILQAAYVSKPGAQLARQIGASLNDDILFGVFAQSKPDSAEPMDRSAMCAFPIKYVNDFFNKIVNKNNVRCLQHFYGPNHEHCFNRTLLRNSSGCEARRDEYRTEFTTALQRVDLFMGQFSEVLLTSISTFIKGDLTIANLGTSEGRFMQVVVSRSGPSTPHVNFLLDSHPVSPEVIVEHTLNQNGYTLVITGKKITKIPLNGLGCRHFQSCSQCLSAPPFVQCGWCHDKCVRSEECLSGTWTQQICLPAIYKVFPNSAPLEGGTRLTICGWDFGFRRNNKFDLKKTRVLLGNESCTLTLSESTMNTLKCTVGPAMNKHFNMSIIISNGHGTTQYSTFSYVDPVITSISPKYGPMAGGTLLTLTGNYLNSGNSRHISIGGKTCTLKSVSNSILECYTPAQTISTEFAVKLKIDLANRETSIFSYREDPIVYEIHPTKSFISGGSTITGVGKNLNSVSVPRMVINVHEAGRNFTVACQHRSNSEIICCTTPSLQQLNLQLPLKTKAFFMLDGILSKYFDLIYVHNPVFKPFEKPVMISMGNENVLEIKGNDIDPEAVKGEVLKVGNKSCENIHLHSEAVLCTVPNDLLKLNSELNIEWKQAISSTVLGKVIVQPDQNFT
T2 sequence (P08581 308-1390 limits assumed): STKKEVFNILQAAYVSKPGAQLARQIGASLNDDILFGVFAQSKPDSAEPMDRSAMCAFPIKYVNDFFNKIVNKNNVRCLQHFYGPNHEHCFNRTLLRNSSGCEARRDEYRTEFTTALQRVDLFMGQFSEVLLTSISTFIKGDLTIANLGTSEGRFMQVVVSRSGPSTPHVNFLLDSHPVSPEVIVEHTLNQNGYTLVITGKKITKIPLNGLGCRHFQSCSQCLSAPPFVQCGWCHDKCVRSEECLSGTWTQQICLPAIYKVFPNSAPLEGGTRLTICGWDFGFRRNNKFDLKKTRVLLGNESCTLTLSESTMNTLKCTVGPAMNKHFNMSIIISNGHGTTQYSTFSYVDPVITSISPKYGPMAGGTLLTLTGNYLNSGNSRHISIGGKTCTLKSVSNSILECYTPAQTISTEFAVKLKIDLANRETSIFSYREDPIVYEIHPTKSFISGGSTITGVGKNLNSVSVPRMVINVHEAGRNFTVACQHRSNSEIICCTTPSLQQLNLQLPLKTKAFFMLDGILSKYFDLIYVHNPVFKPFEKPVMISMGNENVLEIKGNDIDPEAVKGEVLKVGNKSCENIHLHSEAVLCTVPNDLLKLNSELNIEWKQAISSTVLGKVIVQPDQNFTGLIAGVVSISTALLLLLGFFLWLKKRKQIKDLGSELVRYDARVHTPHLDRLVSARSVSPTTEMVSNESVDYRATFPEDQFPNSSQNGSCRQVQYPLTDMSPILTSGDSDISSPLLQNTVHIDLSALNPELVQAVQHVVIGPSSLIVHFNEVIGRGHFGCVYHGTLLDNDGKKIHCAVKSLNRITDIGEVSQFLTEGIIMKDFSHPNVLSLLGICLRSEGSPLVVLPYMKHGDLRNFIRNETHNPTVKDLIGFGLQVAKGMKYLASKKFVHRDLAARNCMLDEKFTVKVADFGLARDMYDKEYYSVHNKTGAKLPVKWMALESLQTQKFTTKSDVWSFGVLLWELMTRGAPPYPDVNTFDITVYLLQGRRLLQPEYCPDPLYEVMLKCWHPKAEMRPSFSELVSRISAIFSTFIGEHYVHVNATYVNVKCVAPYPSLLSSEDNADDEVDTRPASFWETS
T2 sequence (P08581 25-307 limits assumed): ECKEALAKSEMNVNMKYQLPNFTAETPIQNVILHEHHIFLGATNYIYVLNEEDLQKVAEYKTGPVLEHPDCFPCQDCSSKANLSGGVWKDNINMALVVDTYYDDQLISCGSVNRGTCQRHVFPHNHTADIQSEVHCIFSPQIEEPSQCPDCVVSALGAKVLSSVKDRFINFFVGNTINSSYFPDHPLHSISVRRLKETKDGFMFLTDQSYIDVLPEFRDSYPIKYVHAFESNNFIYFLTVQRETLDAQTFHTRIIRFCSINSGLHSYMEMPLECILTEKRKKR
T1 sequence (P08581 25-932 limits assumed): as the sequence (P08581 25-932, stated change not applied) above
T4 sequence (Q75ZY9 25-935 limits assumed): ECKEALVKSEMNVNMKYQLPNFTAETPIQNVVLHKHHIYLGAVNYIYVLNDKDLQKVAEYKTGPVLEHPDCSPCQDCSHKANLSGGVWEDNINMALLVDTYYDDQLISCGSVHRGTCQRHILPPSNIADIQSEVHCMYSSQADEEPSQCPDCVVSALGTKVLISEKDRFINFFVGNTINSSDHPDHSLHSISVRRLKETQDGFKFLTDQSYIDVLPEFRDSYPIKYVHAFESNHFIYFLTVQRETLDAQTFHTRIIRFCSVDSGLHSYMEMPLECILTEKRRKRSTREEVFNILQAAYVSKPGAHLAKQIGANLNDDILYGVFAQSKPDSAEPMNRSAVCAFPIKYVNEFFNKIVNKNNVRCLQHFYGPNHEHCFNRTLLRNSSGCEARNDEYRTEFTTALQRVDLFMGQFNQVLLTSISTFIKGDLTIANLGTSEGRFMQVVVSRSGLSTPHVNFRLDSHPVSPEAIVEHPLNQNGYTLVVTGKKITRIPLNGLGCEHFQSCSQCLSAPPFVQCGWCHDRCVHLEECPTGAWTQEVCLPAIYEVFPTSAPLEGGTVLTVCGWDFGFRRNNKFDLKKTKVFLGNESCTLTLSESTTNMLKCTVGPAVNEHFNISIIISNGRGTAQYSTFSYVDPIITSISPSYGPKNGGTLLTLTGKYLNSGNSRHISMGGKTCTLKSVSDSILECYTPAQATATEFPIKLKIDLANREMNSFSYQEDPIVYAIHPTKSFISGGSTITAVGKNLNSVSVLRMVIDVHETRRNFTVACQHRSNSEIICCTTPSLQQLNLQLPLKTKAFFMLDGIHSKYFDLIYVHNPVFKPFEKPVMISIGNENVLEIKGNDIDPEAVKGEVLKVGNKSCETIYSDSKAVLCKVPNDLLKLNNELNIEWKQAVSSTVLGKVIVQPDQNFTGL
T3 sequence (P16056 25-931 limits assumed): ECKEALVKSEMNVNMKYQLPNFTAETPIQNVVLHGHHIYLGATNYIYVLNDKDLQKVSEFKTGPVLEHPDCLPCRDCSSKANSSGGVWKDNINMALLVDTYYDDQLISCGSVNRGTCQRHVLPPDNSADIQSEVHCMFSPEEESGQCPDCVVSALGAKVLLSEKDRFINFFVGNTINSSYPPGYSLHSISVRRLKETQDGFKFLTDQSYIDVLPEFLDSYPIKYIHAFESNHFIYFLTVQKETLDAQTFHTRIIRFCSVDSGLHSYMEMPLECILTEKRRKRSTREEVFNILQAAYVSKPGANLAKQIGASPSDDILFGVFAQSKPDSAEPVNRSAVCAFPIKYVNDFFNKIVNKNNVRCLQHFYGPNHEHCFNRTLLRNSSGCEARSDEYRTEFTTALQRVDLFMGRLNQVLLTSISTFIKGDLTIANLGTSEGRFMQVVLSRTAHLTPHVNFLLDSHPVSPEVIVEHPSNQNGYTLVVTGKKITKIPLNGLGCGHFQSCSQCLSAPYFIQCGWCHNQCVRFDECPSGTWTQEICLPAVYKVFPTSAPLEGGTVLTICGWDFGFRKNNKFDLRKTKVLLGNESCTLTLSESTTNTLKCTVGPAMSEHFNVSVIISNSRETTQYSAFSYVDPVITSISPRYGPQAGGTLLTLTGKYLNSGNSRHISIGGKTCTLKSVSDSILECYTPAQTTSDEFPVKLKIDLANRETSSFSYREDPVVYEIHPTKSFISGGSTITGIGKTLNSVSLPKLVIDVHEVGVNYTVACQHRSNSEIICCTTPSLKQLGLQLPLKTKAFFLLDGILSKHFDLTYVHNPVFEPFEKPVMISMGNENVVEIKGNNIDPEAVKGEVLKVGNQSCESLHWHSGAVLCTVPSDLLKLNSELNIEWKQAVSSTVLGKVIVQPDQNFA

Molecule: Cc1[nH]c(/C=C2\C(=O)Nc3ccc(S(=O)(=O)N(C)c4cccc(Cl)c4)cc32)c(C)c1C(=O)N1CCN(C)CC1 [SU11274, reference compound]
effect of Met inhibitor on c-Ret phosphorylation (c-Ret; EHMES-1 cells stimulated with 1 nM hHGF or 100 nM aML5-PEG3): decreased c-Ret phosphorylation

Molecule: aML5-Lin: linear counterpart of aML5 (Ac-YISWNEFNSPNWRFITAG-NH2)
KD relative to parental peptides (human Met ectodomain [1]): approximately two orders of magnitude higher

Met Y1234/1235 phosphorylation (agonist activity) (Met (Y1234/1235); 10 min stimulation, 10% FBS): equivalent to that of hHGF
Molecule: biotinylated hHGF: hHGF biotinylated using NH2-Reactive Biotin, 1.5 biotin per hHGF

concentration above which Met phosphorylation level decreased (bell-shaped response) (Met (Y1234/1235)): above 5 nM
Molecule: hHGF: human recombinant hepatocyte growth factor, positive control
binding to human Met ectodomain (human Met ectodomain [2]): binding of the immobilized hHGF to all three of the ectodomains
binding to murine Met ectodomain (murine Met ectodomain): binding of the immobilized hHGF to all three of the ectodomains
binding to canine Met ectodomain (canine Met ectodomain): binding of the immobilized hHGF to all three of the ectodomains
phosphorylation of Met and downstream proteins (Gab1, Akt, Erk1/2) [3]: Met was phosphorylated at the Y1234/1235 and Y1349 residues
Met phosphorylation at excess concentration [4, 6]: strongly induced Met phosphorylation
effect on RTKs phosphorylated in FBS-containing media [4, 6]: neither affected the phosphorylation level of the RTKs
RTK phosphorylation selectivity ([4]; EHMES-1 cells, 100 nM dimeric macrocycles or 2 nM hHGF, 10 min, without FBS): specifically phosphorylated Met
c-Ret phosphorylation (c-Ret; EHMES-1 cells, FBS-containing media): induced c-Ret phosphorylation in a dose-dependent manner
restoration of proliferation (HCC827 cells): restored in a dose-dependent manner
DNA synthesis (BrdU incorporation) (HPAEC): promoted DNA synthesis
branched tubule formation (RPTEC): developed branched tubules

Kd [5]: 19 nM
koff [5]: 0.0081 s⁻¹
kon [5]: 430000 M⁻¹ s⁻¹
B1: aML5 (peptide)
peptide: {CH2CO}-YISWNEFNSPNWRFITCG-NH2
modifications: thioether N-17
SMILES: CC[C@H](C)[C@@H]1NC(=O)[C@H](Cc2ccc(O)cc2)NC(=O)CSC[C@@H](C(=O)NCC(N)=O)NC(=O)[C@H]([C@@H](C)O)NC(=O)[C@H]([C@@H](C)CC)NC(=O)[C@H](Cc2ccccc2)NC(=O)[C@H](CCCNC(=N)N)NC(=O)[C@H](Cc2c[nH]c3ccccc23)NC(=O)[C@H](CC(N)=O)NC(=O)[C@@H]2CCCN2C(=O)[C@H](CO)NC(=O)[C@H](CC(N)=O)NC(=O)[C@H](Cc2ccccc2)NC(=O)[C@H](CCC(=O)O)NC(=O)[C@H](CC(N)=O)NC(=O)[C@H](Cc2c[nH]c3ccccc23)NC(=O)[C@H](CO)NC1=O
notes: thioether macrocycle selected by RaPID from the L-library against human Met ectodomain; also called anti-Met L-library macrocycle 5; source: synthetic peptide (Fmoc SPPS, RP-HPLC purified)

Kd [5]: 1300 nM
koff [5]: 0.017 s⁻¹
kon [5]: 13000 M⁻¹ s⁻¹
B2: aML5-Lin (peptide)
peptide: Ac-YISWNEFNSPNWRFITAG-NH2
notes: linear form of aML5, Ala in place of the ring-closing Cys; also called linear counterpart of aML5; source: synthetic peptide
